B1: Chirp7 (peptide)
chain: KEGYLVNHSTGCKYECFKLGDNDYCLRECRQQYGKGAGGYCYAFGCWCTHLYEQAVVWPLPKKTCN-NH2
modifications: disulfide (positions not given here); also: four disulfide bridges, pairing not given here
B2: Chirp9 (peptide)
chain: KEGYIVDYHTGCKYTCAKLGDNDYCVRECRLRYYQSAHGYCYAFACWCTHLYEAAVVWPLPNKRCK-NH2
modifications: disulfide (positions not given here); also: four disulfide bridges, pairing not given here

Experiments:
hNav 1.1 = assay: Patch-clamp macroscopic sodium currents, hNav1.1 in HEK cells; type: cell-based, human; details: 200 nM toxin, mean ± SE of 5 cells (3–5 cells); for I/Imax (residual peak current): Chirp9 value marked * (p<0.05 paired t-test); for slope of activation after toxin: control 7.7 ± 0.7 (Chirp7 cells), 7.2 ± 0.3 (Chirp9 cells); for V0.5 of activation after toxin: control -24.8 ± 0.8 (Chirp7 cells, toxin value marked *), -22.8 ± 0.3 (Chirp9 cells), * = p<0.05 paired t-test; for slope of inactivation after toxin / V0.5 of inactivation after toxin: steady-state inactivation; for slope of inactivation after toxin: control 6.7 ± 0.1 (Chirp7 cells), 6.8 ± 0.2 (Chirp9 cells); for V0.5 of inactivation after toxin: control -59.9 ± 0.2 (Chirp7 cells), -59 ± 0.2 (Chirp9 cells)
Procedure: (§1) Recordings of macroscopic currents from sodium channels. Human voltage-gated sodium channels (hNav 1.1, hNav 1.2 and hNa 1.6) were stably expressed in HEK cells. Cells were maintained at 37 ◦C with 5% CO2 in a humidified atmosphere. The growth medium consisted of high-glucose Dulbecco’s Modified Eagle Medium (DMEM, Sigma Aldrich, Naucalpan de Juarez, Estado de Mexico, Mexico), supplemented with 10% Fetal Bovine Serum (ByProductos, Guadalajara, Jalisco, Mexico) and 500 μg/mL of the antibiotic G418 (Sigma Aldrich, Naucalpan de Juarez, Estado de Mexico, Mexico). The extracellular solution was composed of (in mM): 130 NaCl, 5 KCl, 2 CaCl2, 2 MgCl2, 10 HEPES, and 5 glucose, with the pH adjusted to 7.3 using NaOH. The intracellular solution contained (in mM): 105 CsF, 27 CsCl, 5 NaCl, 2 MgCl2, 10 EGTA, and 10 HEPES, with the pH also adjusted to 7.3 with CsOH. Solutions were delivered to the patched cell via an active perfusion system connected to a variable-speed syringe pump (Model A-99, Razel Scientific Instruments, Fairfax, VT, USA), with a perfusion rate of approximately 1 μL/s. Patch pipettes were made from borosilicate glass capillaries (Warner Instruments, Hamden, CT, USA) using a vertical puller (Model P-30, Sutter Instrument, Novato, CA, USA). The pipettes were filled with the internal solution and had resistance ranging from 1.5 and 3 MΩ. Sodium currents were elicited by 100 ms depolarization ranging from −110 to 30 mV in 10 mV steps, followed by a fully activating step at −10 mV for 50 ms. To better appreciate the effects of scorpion β-sodium toxins, channels were primed by means of a 5 ms depolarization at 50 mV, applied 50 ms before the depolarization steps, as previously described in Cestele et al. 1998 [17]. To ensure complete recovery from inactivation, cells were maintained at −120 mV for 280 ms before each step, while holding potential was set at −100 mV. Currents were acquired using a MultiClamp 700A amplifier and a DigiData 1440A digitizer (Molecular Devices, CA, USA).
For the activation curve, conductance (G) was calculated from current (I) elicited during depolarization steps by means of the equation G = I/(Vm − ENa), where I is the current elicited at membrane potential Vm, and ENa is the reversal potential of Na^+ ions, calculated experimentally for each cell. Conductance was normalized to its maximal level and plotted against the corresponding membrane potential. For the steady-state inactivation curve, currents elicited at −10 mV (after preconditioning depolarization from −110 to 30 mV) were plotted against the preconditioning potentials. Data from activation and from steady-state inactivation were fitted using a Boltzmann equation: y = A2 + (A1 − A2)/(1 + exp((x − x0)/dx)) where A1 is the initial value, A2 is the final value, x0 is the potential of half-activation (or half-inactivation) and dx is the slope. […]
Figure S1. Recordings of macroscopic currents from sodium channels. Sodium currents in B) were elicited by the stimulation protocol depicted in A): currents were elicited by 100 ms depolarization ranging from -110 to 30 mV in 10 mV steps, followed by a fully activating step at -10 mV for 50 ms.
A 5 ms depolarization at 50 mV was applied 50 ms before the depolarization steps to primed the channels. Peak currents obtained during the step depolarization from -110 to 30 mV (C and D, black circle in control and open circle after toxin application) were used to calculate the conductance and construct the activation curves. Currents recorded during the step at -10 mV (C and D, black square in control and open square for the toxin), were used to construct the inactivation curves. […]

hNav 1.6 = assay: Patch-clamp macroscopic sodium currents, hNav1.6 in HEK cells; type: cell-based, human; details: 200 nM toxin; for A: fraction of channels bound to the toxin: activation; for A: fraction of channels bound to the toxin / slope of activation after toxin / V0.5 of activation after toxin: sum of two Boltzmann fit; for A: fraction of channels bound to the toxin / I/Imax (residual peak current) / slope of inactivation after toxin / V0.5 of inactivation after toxin / slope of activation after toxin / V0.5 of activation after toxin: mean ± SE of 5 cells (3–5 cells); for I/Imax (residual peak current): both values marked * (p<0.05 paired t-test); for slope of inactivation after toxin / V0.5 of inactivation after toxin: steady-state inactivation; for slope of inactivation after toxin: control 6.6 ± 0.3 (Chirp7 cells), 6.3 ± 0.1 (Chirp9 cells); for V0.5 of inactivation after toxin: control -55.8 ± 0.3 (Chirp7 cells), -65.0 ± 0.1 (Chirp9 cells); for slope of activation after toxin: control 5.6 ± 0.22 (Chirp7 cells), 7.0 ± 0.4 (Chirp9 cells); for slope of activation after toxin / V0.5 of activation after toxin: both toxin values marked * (p<0.05); for V0.5 of activation after toxin: toxin-bound component, control -22.8 ± 0.3 (Chirp7 cells), -22.5 ± 0.3 (Chirp9 cells)
Procedure: as §1
For the activation curve, conductance (G) was calculated from current (I) elicited during depolarization steps by means of the equation G = I/(Vm − ENa), where I is the current elicited at membrane potential Vm, and ENa is the reversal potential of Na^+ ions, calculated experimentally for each cell. Conductance was normalized to its maximal level and plotted against the corresponding membrane potential. For the steady-state inactivation curve, currents elicited at −10 mV (after preconditioning depolarization from −110 to 30 mV) were plotted against the preconditioning potentials. Data from activation and from steady-state inactivation were fitted using a Boltzmann equation: y = A2 + (A1 − A2)/(1 + exp((x − x0)/dx)) where A1 is the initial value, A2 is the final value, x0 is the potential of half-activation (or half-inactivation) and dx is the slope.
For hNav 1.6 currents, activation data after toxin exposure were fitted using the sum of two Boltzmann equations: y = y0 + A (frac/(1 + exp((x − x01)/k1)) + (1 − frac)/(1 + exp((x − x02)/k2))) where the sum is 1, x01 and dx1 are the same as under control conditions, and “frac” represents the fraction of channels bound to the toxin. Data are presented as means ± standard error (SE). The paired sample t-test (also known as the dependent samples t-test) was applied by comparing, for each individual cell recorded, the electrophysiological parameter of interest (e.g., peak current, V½ of activation or inactivation) before toxin application and after toxin application. Significant difference was accepted with a confidence level “p” set at 0.05. […]
Figure S1. Recordings of macroscopic currents from sodium channels. Sodium currents in B) were
elicited by the stimulation protocol depicted in A): currents were elicited by 100 ms depolarization
ranging from -110 to 30 mV in 10 mV steps, followed by a fully activating step at -10 mV for 50 ms. […]

Row | Molecule | I/Imax (residual peak current) (hNav 1.1) | slope of activation after toxin (hNav 1.1) | V0.5 of activation after toxin (hNav 1.1) [mV] | slope of inactivation after toxin (hNav 1.1) | V0.5 of inactivation after toxin (hNav 1.1) [mV] | effect on activation curve (hNav 1.6) | effect on peak current (hNav 1.6) | A: fraction of channels bound to the toxin (hNav 1.6) | I/Imax (residual peak current) (hNav 1.6) | slope of inactivation after toxin (hNav 1.6) | V0.5 of inactivation after toxin (hNav 1.6) [mV] | slope of activation after toxin (hNav 1.6) | V0.5 of activation after toxin (hNav 1.6) [mV] | effect on inactivation kinetic (hNav 1.6; residual current at potentials greater than −30 mV)
1 | B1 | 0.98±0.02 | 6.9 ± 0.5 | -26.9 ± 0.6 | 6.4 ± 0.1 | -60.9 ± 0.2 | leftward shift in the activation curves | reduced the peak current | 0.34 ± 0.04 | 0.88 ± 0.03 | 7.2 ± 0.4 | -58 ± 0.4 | 9.4 ± 1.9 | -52.5 ± 3.4 | –
2 | B2 | 0.94 ± 0.02 | 8.2 ± 0.2 | -23.6 ± 0.2 | 7.3 ± 0.2 | -60.1 ± 0.2 | leftward shift in the activation curves | reduced the peak current | 1 ± 0.1 | 0.29 ± 0.03 | 6.9 ± 0.4 | -67.1 ± 0.5 | 15.5 ± 0.9 | -40.9 ± 0.2 | slows down the inactivation kinetic by promoting a residual current

From publication PMC12737490, “Beta Toxins Isolated from the Scorpion Centruroides hirsutipalpus (Scorpiones; Buthidae) Affect the Function of Sodium Channels of Mammals” (Toxins, 2025)
